This assay concerns the target Factor H (CFH) (human) (UniProt P08603). Briefly: SPR.
UniProt P08603, sequence (P08603 19-1231): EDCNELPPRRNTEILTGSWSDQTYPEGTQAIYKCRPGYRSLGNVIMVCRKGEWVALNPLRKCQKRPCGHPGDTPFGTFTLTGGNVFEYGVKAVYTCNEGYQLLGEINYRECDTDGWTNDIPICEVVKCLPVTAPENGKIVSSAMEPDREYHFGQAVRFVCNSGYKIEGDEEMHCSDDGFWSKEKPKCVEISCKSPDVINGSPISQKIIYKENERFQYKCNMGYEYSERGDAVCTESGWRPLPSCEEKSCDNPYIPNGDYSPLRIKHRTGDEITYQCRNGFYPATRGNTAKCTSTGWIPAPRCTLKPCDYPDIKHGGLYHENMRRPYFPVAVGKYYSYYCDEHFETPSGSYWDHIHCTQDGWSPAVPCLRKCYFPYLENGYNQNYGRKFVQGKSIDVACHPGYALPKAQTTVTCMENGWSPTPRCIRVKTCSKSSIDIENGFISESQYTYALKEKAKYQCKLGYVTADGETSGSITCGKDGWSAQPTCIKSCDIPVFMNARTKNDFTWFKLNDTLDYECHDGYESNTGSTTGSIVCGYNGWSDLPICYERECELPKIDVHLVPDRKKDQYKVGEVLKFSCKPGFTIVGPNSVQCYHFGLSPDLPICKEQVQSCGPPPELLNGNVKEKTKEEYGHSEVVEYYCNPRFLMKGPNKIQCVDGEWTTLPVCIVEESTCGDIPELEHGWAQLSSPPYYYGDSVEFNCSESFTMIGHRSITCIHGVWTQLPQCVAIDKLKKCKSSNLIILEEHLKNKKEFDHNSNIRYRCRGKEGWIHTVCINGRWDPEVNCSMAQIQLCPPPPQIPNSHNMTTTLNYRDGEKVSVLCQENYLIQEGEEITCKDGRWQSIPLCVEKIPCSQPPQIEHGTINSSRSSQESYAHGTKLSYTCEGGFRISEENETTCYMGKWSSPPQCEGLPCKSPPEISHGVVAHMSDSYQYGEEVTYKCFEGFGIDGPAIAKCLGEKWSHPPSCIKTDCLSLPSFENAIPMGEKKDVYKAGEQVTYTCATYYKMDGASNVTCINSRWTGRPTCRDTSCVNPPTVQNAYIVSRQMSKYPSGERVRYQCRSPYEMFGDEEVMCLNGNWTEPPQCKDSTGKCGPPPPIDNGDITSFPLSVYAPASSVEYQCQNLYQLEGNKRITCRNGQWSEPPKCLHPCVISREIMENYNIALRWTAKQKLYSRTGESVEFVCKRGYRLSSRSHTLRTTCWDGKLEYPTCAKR

The substance “155Q C3 protein (C3 K155Q variant, rs147859257), methylamine-treated C3 (MA) (natural protein)” showed a reduced binding against 155K C3 (percent) of 60%.

The values above are taken from PMC3902040.
